Results on one molecule are retold here after PMC5906480, “Tau Antibody Structure Reveals a Molecular Switch Defining a Pathological Conformation of the Tau Protein” (Scientific Reports, 2018).

The target of test [1] is FITC-conjugated tau peptide pS396/pS404. Put plainly: Fluorescence polarization direct binding, pS396/pS404 peptide. The note with it: restated in Discussion; fluorescence polarization, Fab C5.2. The procedure:
FITC-labeled peptides used in fluorescence polarization experiments were synthesized by Biomatik (Cambridge, ON, Canada). Fab C5.2 affinity was determined using a fluorescence polarization-based direct binding assay with fluorescein isothiocyanate (FITC)-conjugated peptides (Table 1). The FITC-peptide concentration was kept constant at 300 nM while Fab C5.2 was serially diluted from 675 nM to 0.08 nM. Data was collected at 25 °C using excitation and emission wavelengths of 485 nm and 535 nm, respectively. Each experiment was done in a single 96-well plate and calculated in triplicate (buffer: 50 mM Tris, 100 mM NaCl, 0.1% pluronic F-127). The experiments were performed with a DTX 880 Multimode Detector (Beckman Coulter, Jersey City, NJ). Fluorescence data was reduced using multimode detection software and KD values were calculated in GraphPad Prism 7.0 using a nonlinear regression model.
To accurately measure the C5.2 binding affinity, we performed fluorescence polarization experiments to determine dissociation constants (KD), using the Fab C5.2 and four differentially phosphorylated FITC-conjugated peptides (Table 1). The peptide concentration was kept constant while that of Fab C5.2 was serially diluted from 675 nM to 0.08 nM (Fig. 1d). […] In comparison with a […] IgG molecule, each Fab fragment contains a single binding site so the KD was calculated using a nonlinear model.

The subject of the next test is pS396 peptide. Put plainly: ELISA, pS396 peptide. Type of test: binding. The protocol:
Immulon 4 HBX (extra high-binding) 96-well microtiter plates (Thermo Scientific) were coated with the same peptide used for crystallization diluted to 2 μg/mL in phosphate-buffered saline (PBS) and left overnight at 4 °C (Table 1). Plates were then washed three times in PBS-T (PBS containing 0.05% Tween-20) and blocked in 5% non-fat milk and 3% bovine serum albumin in PBS for 2 hours at room temperature. Plates were subsequently washed 3 times in PBS-T before C5.2 was serially diluted (8 μg/mL–0.05 ng/mL) in PBS and incubated for 1 hour at room temperature. Then, alkaline phosphatase-conjugated goat anti-mouse IgG (Southern Biotech) was diluted 1:2000 in PBS and incubated for 30 minutes at room temperature. Finally, bound IgG was analyzed by addition of p-nitrophenyl phosphate substrate (Thermo Scientific) and measurement at 405 nm on a VersaMax Microplate Reader.
In order to evaluate the ability of C5.2 to exclusively target the phosphorylated epitope, we performed an enzyme-linked immunosorbent assay (ELISA). The peptides used in the assay are the same peptides used for crystallization and diluted to a concentration of 2 μg/mL (Table 1). Binding curves were generated from ELISA data by maintaining plate-bound peptide concentrations and serially diluting C5.2 IgG (Fig. 1c).

In test [2] the test system is normal tau in the soluble tau fraction (S1) from healthy control subjects. Description: Western and dot blot, healthy control brain. Type of test: binding, human. The note with it: C5.2 1 µg/mL overnight 4 °C, pool of 4 healthy control donors. The protocol:
Mice were euthanized by cervical dislocation. Brains were quickly removed, weighed and divided sagittally down the midline to yield two hemispheres. One hemisphere was parted from the cerebellum and hindbrain, the forebrain containing cerebral cortex and hippocampus was snap-frozen on dry ice and stored at −80 °C until use for biochemical analysis. Frontal cortices from 4 AD donors (2 males and 2 females) and 4 non-demented healthy controls (HC, 2 males and 2 females) were obtained from Cambridge Bioscience (Cambridge, UK). The brain tissue samples were fresh-frozen and stored at −80 °C until used for biochemical analysis. All donors were of Caucasian race. Age of AD donors: 76–91 years. Age of the HC donors: 57–80 years. […]
Samples were boiled in 1 × LDS loading buffer and 100 mM DTT. […] Tau and pTau levels were assessed in the samples using 1 μg/mL C5.2 overnight at 4 °C. A secondary fluorophore conjugated IgG antibody was used (IRDye 680 Goat anti-mouse, LICOR biosciences) and the signal was quantified using Odyssey CLx and Image studio software (LI-COR biosciences).
1 μl sample of S1 and P3 isolated from 24 weeks old rTg4510 and non-transgenic littermate (non-tg) mice or from four pooled Alzheimer’s disease (AD) and healthy control (HC) brains was spotted on nitrocellulose membranes. […] Bound antibodies were detected using an enhanced chemiluminescence system (ECL PLUS kit; Perkin Elmer).

B1: C5.2: novel mouse monoclonal antibody that targets the pS396 tau epitope region (antibody, V domains shown)
VH: QVQLQQSDAELVKPGASVKISCKASGYTFTDRTIHWVKQRPEQGLEWIGYIYPGDDSTKYNDMFKAKATLTADKSSNTAYMQLNSLTSDDSAVYFCARRGTMDYWGQGTSVTVSS
VL: DVQMIQSPSSLSASLGDIVTMTCQASQDTSINLNWFQQKPGKAPKLLIYGASNLEDGVPSRFSGSRYGTDFTLTISSLEDEDMATYFCLQHTYLPFTFGSGTKLEIK
As to B1, the Kd in test [1] came out at 15.4 nM. For the same molecule, the Phospho-specificity result with pS396 peptide (ELISA, vs pS404 and non-phosphorylated peptides) is “pS396 phosphorylation state-specific mAb”. Further, the “Association with peptide (ELISA)” value in the test with pS396 peptide (plate coated with peptide 2 μg/mL, C5.2 IgG 8 μg/mL–0.05 ng/mL, 1 h room temperature, 405 nm) was “strong association”. In addition, the “Detection of normal tau (S1)” value in test [2] was “not detected”.
